Literature values as cited in publication PMC7337045.

Molecular target: IRS-1 phosphopeptide (UniProt P35570)
Sequence (P35570 whole entry, looked up, tested part not stated): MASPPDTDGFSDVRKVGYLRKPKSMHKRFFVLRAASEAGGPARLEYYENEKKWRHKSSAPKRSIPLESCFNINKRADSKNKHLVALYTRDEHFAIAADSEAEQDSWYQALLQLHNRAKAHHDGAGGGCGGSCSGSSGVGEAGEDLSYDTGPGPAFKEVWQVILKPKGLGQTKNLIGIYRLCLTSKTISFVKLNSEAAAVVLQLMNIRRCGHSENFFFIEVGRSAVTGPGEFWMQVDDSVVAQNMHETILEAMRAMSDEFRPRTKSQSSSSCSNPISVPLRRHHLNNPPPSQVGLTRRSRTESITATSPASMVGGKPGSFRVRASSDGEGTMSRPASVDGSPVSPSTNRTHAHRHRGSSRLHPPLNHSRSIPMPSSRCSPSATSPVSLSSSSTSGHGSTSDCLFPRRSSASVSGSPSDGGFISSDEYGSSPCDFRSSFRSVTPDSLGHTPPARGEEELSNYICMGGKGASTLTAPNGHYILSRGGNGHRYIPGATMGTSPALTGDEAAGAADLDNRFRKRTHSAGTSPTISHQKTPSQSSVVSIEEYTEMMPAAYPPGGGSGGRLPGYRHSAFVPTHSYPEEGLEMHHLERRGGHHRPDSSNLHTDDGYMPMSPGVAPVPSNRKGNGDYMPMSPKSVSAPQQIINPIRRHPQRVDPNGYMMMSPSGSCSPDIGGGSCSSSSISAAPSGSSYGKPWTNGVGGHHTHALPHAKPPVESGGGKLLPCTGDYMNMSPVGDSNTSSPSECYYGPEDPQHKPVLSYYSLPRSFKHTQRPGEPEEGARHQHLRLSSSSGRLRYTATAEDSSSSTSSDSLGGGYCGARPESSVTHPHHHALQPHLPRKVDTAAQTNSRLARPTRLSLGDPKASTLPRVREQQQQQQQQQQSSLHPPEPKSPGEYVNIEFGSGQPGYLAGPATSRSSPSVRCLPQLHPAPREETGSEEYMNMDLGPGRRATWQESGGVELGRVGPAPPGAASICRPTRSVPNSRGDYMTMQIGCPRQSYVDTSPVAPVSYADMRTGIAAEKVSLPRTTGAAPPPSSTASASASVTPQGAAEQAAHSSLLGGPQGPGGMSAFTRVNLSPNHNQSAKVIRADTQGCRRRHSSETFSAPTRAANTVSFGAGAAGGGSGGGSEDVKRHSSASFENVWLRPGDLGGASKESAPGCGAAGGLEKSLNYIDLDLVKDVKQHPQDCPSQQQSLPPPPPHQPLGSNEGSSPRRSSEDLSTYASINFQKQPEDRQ

Substance: SHP2 N-SH2 (from UniProt Q06124)
- Kd: 14 nM
